The target in assay [1] is HMG1 purified from bovine (calf) thymus (bovine) (UniProt P10103). The assay is described as follows: cell-based or functional assay.
Assay [2] has as its target HMGB1 in DNA immune complexes of human lupus plasma (human) (UniProt P09429). The assay is described as follows: cell-based or functional assay.

Chain of HMG1 purified from bovine (calf) thymus (bovine) (P10103 2-215 limits assumed): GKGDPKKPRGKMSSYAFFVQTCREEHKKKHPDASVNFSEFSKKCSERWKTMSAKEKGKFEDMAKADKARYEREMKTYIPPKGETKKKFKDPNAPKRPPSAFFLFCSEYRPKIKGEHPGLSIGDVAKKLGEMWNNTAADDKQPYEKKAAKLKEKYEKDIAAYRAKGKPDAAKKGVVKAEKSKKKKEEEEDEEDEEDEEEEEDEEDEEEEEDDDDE
Chain of HMGB1 in DNA immune complexes of human lupus plasma (human) (P09429 whole entry, one chain of several): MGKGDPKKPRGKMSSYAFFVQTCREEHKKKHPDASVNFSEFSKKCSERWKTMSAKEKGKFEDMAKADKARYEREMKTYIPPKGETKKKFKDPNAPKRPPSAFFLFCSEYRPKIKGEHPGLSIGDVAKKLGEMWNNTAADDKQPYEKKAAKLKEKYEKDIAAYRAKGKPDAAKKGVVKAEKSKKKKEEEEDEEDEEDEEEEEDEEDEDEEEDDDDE

Regarding “RAGE-Fc fusion protein (species not stated)”, the IFN-a release from mouse bone marrow cells, HMGB/CpG-A mediated enhanced TLR9 signaling in assay [1] was above 95%. In addition, the decrease in IFIT1 mRNA in human PBMC stimulated with 20% lupus plasma in assay [2] came out at 75%.

Values taken from patent US20080311122A1, “Antagonists of Hmgb1 and/or Rage and Methods of Use Thereof” (Medimmune, LLC, priority 2005, published 2008).
